Consider one molecule from CN118126168A.

Substrate in assay [1]: 禽流感病毒NP蛋白 (avian influenza virus)
Substrate in assay [2]: 禽流感病毒NP蛋白 (avian influenza virus)
The experiment in a line: indirect ELISA.

B1: 禽流感病毒NP蛋白的单克隆抗体 (antibody, V domains shown)
VH: EVRLQESRPELVEPGASVKISCNASAYTFSDYWMNCVKQSHGKSLECIGDISPTYDRTSYNHKFKGYATLTVDKSSSSAYIELRSLTSDDSAVYYCARGGYGNYRDYWGKRTTRTVSS
VL: MKYLLATAAAGILLLAAQPAMADVVMSQTTRTLSVSIEQPASISCKSSQSLLHSDGKSYLNWLLQRPRQSPKCLSYLVSRRDSGVPDRVTGSSSGTDVTLGISSVEAEDLRVYYYWQRTHCPITVGSGTKLDIK
With B1, the 试纸条灵敏度 (lowest NP concentration detected) in assay [1] came out at 0.18 µg/mL. For the same molecule, the ELISA titre (dilution still positive) (fold dilution) in assay [2] is over 102000.
